Like-named read-outs stand apart in the source and are kept apart here.
What was measured:
GPR3-BRIL fusion protein [1] = target: GPR3-BRIL fusion protein (UniProt P46089); experiment: cryo-EM structure
GPR3-BRIL fusion protein [2] = target: GPR3-BRIL fusion protein (UniProt P46089); experiment: cryo-EM structure; remark: listed apart in the source

stoichiometry N (GPR3-BRIL fusion protein [1]): 2
stoichiometry N (GPR3-BRIL fusion protein [2]): 2
Substance: GPR3-BRIL fusion protein (from UniProt P46089 1-222; P46089 240-330) (receptor)

From paper doi:10.1101/2025.04.19.649678
